Data on one molecule can be found in patent US20250236667A1, “ANTIBODIES TO MUTANT CALRETICULIN AND USES THEREOF” (CENTRAL ADELAIDE LOCAL HEALTH NETWORK INC, priority 2021, published 2025).

Experiment [1] concerns TF-1 TpoR CALR^del61 cells. Briefly: Cell cycle analysis by flow cytometry (propidium iodide). The format is cell-based, human. The following applies: 20 μg/mL, 48 hours; P=0.001. The procedure: Cell cycle analysis was carried out by flow cytometry. Briefly, TF-1 TpoR and TF-1 TpoR CALR^del61 cells were seeded at a concentration of ˜2×10^5 per well in triplicate under standard culture conditions, with the addition of 20 μg/mL IgG or 4D7. Cells were treated for 48 hours and were fixed by 70% (v/v) ethanol at 4° C. overnight. Fixed cells were rinsed twice with PBS and stained with 50 μg/mL propridium iodide (PI: ThermoFisher)+100 μg/mL RNAse A (QIAGEN). Cells were incubated for 30 minutes at RT in the dark and analysed on the BD FACSCantoII (BD Biosciences).
Background: A flow cytometer gives signals particle by particle.

Experiment [2] has as its system TF-1 TpoR CALR^del61 cells in NSG mice. Briefly: Bone marrow engraftment xenograft model. The format is in vivo. The procedure:
All procedures were approved by the South Australian Health and Medical Research Animal Ethics Committee (Protocol SAM21-018). Bone marrow engraftment model: 4-6 week old NSG mice were x-ray irradiated with 150 cGy and 5×10^5 cells (TF-1-TpoR CALR^del61) or 5×10^4 cells (100 nM ruxolitinib resistant TF-1 TpoR CALR^del61) were intravenously injected into mice. […] Tail vein bleeds were taken at 3 weeks and analysed via flow cytometry to determine human leukaemia content in the peripheral blood. Leukemic cells were PI-, mCD45.1, hCD33+, zsGreen+. Mice were monitored daily and euthanized once clinical symptoms were observed. At the time of euthanasia, cardiac puncture was performed to obtain both peripheral blood and serum for analysis. Additionally, bone marrow from both femurs, spine and spleens were analysed for leukemic content as detailed above. Chloroma model: 4-6 week old NSG mice were anaesthetised by isoflurane inhalation and shaved on the left back/flank and 1×10^7 cells were injected into the mice. Cells were pre-treated with 20 μg/mL IgG or 4D7 for 1 hour prior to injection. […] Tumour progression was assessed through caliper measurements every 2 days. Mice were euthanised once tumours began to impede movement, show signs of ulceration or if any measurement of the tumour exceeded 30 mm (length, width or depth).

The subject of experiment [3] is phospho-STAT1,3,5 and phospho-ERK in TF-1 cells expressing TpoR alone. Briefly: Western blot of STAT/ERK signalling. The format is cell-based, human. The following applies: 10 or 20 μg/mL for 4 or 8 hours, in presence of TPO. Here is the method:
A. Cell extracts blotted for phospho-STAT5, total STAT5, phospho-ERK, total ERK and actin from TF-1 TpoR cells after incubation with 10 or 20 μg/mL 4D7 or IgG for 4 or 8 hours, in presence of TPO. The last line indicates TPO withdrawal. B. Similar experiment using TPO-independent TF-1 TpoR CALR^del61 cells. C. Similar experiment using TPO-independent TF-1 TpoR CALR^del52 cells at 8 hours. D. Fraction of apoptotic sub-Go population of TF-1 TpoR CALR^del61 cells after 48 hours of 4D7 or IgG treatment (n=3). E. Western blot showing caspase 3 cleavage occurring within 24 hours of TPO withdrawal in TPO dependent TF-1 TpoR cells. An increase in cleaved caspase 3 is observed after 48 hours of treatment with 20 μg/mL 4D7 in TF-1 TpoR CALR^del61 and TF-1 TpoR CALR^del52 cells. F. Western blot of TpoR immunoprecipitation under non-reducing conditions showing associated CALR 50 kDa monomers and 100 kDa dimers (arrowheads) present only in TF-1 TpoR CALR^del61 disrupted by 8 hour treatment with 20 μg/mL 4D7 but not PBS or 20 μg/mL IgG. CALR monomers & dimers are detectable by polyclonal anti-wild type CALR or anti-mutant CALR monoclonal antibodies. Arrowheads, detected mutant CALR protein: asterisk, non-specific bands. G. Proposed model for the mechanism of action of 4D7 on mutant CALR. In the active form, mutant CALR dimers bound to TpoR form a constitutively activate receptor complex which is disrupted by 4D7 with blockade in STAT and ERK signalling. (Adapted from Masubuchi et al. (2020), Rivera et al (2021)). […]
A. Cell extracts blotted for phospho-STAT1, total STAT1, phospho-STAT3, total STAT3 and actin from TF-1 TpoR cells after incubation with 10 or 20 μg/mL 4D7 or IgG for 4 or 8 hours as indicated. […] Cells were harvested and fixed and stained with propidium iodide and their DNA contents were analysed. […] E. Western blot showing specific co-immunoprecipitation of mutant CALR^del61 cells with TpoR anti-FLAG antibody under reducing conditions detected by total and mutant specific CALR antibodies. Arrowheads represent detected CALR protein. […]

B1: 4D7: rat monoclonal IgG2a antibody against the mutant CALR neoepitope; VH SEQ ID NO: 5, VL SEQ ID NO: 7 (antibody, listed as Rattus rattus, V domains shown)
VH: QVQLQQSGAELAKPGSSVKISCKASGYTFTNYDMSWIKQRPGQALEWIGAINPGNGVTDYNEKFRGKATLTVDKSSSTAFMQLSSLTPEDTAVYHCAREYRDNYGYFDYWGQGVMVTVSS
VL: DIVLTQTPVSLSVTLGDQASISCRSSQSLEYSDGYTYLDWFLQKPGQSPQLLIYEVSSRFSGVPDRFIGRGSGTDFTLKISRVEPEDLGVYYCFQATHDPFTFGSGTKLEIK
As for B1, in experiment [1], the “sub-Go fraction compared to IgG control” value is “significant increase”. Also, the “peripheral blood engraftment of human CD33+ myeloid cells” value in experiment [2] (3 weeks, 12.5 mg/kg twice weekly i.p. starting day 7, P=0.01) was found to be 0.04%. Moreover, in experiment [2] (4D7 vs IgG, 12.5 mg/kg twice weekly, P=0.003), the “survival, log-rank hazard ratio” value is 0.24. For the same molecule, in experiment [3], the inhibition of signalling entry is “no inhibition of signalling”.
